The text below walks through data of publication doi:10.1101/2021.01.21.427698 (bioRxiv, 2021).

The series concerns the molecule itself. Nature of the series: negative-stain single-particle electron microscopy.

B1: human SEPT9_i3 with a noncleavable C-terminal Strep-tag-II (as in the mammalian octamers-9_i3) (natural protein)
chain: MERDRISALKRSFEVEEVETPNSTPPRRVQTPLLRATVASSTQKFQDLGVKNSEPSARHVDSLSQRSPKASLRRVELSGPKAAEPVSRRTELSIDISSKQVENAGAIGPSRFGLKRAEVLGHKTPEPAPRRTEITIVKPQESAHRRMEPPASKVPEVPTAPATDAAPKRVEIQMPKPAEAPTAPSPAQTLENSEPAPVSQLQSRLEPKPQPPVAEATPRSQEATEAAPSCVGDMADTPRDAGLKQAPASRNEKAPVDFGYVGIDSILEQMRRKAMKQGFEFNIMVVGQSGLGKSTLINTLFKSKISRKSVQPTSEERIPKTIEIKSITHDIEEKGVRMKLTVIDTPGFGDHINNENCWQPIMKFINDQYEKYLQEEVNINRKKRIPDTRVHCCLYFIPATGHSLRPLDIEFMKRLSKVVNIVPVIAKADTLTLEERVHFKQRITADLLSNGIDVYPQKEFDEDSEDRLVNEKFREMIPFAVVGSDHEYQVNGKRILGRKTKWGTIEVENTTHCEFAYLRDLLIRTHMQNIKDITSSIHFEAYRVKRLNEGSSAMANGVEEKEPEAPEM
Regarding B1, the binding result is “binds”.
